The supplement of paper PMC10567573

B1: ZNF449 (parent)
chain: HKKKSPGEKPHRCPQCGKCFARKS
B2: ZNF263 (parent)
chain: QPKKLHLCPLCGKNFSNNSNLIRH

Variants of: B1
Assay: protein stability index of a GFP-peptide fusion (GPS, HEK-293T) (PSI 1-6); higher = more stable
Conditions: c terminus: a fixed tail appended
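Note: lentivirally expressed fusions sorted by FACS into six bins by GFP to DsRed ratio, PSI derived from sequencing read proportions per bin multiplied by bin number.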

Protein stability index: each site, then its substitutions
A21: K 3.99
S5: F 3.4 | L 3.23
K9: N 4.35 | R 3.94
C16: A 4.73 | N 3.64
F20: D 4.04
P10: A 4.54
P14: V 3.75 | N 3.87
H1: Y 3.16
C13: E 4.34
K3: T 2.07

Variants of: B2
Assay: as above
Conditions: c terminus: a fixed tail appended

Protein stability index of substitutions, site by site:
P9: A 2.43
L5: I 2.64 | A 2.53 | M 2.71 | H 2.64 | R 2.37 | Y 2.18 | D 3.25 | E 2.64 | N 2.13 | K 2.67 | W 2.74 | C 2.02 | Q 2.54 | F 1.81 | S 2.39 | G 2.54 | P 2.09 | V 3.02 | T 1.71
K4: T 2.75 | I 2.85 | C 2.53 | W 2.47 | S 3.18 | V 2.62 | H 2.49 | D 3 | Q 3.03 | R 1.88 | M 2.53 | P 2.69 | A 2.19 | N 2.92 | E 3.36 | Y 2.44 | G 2.63 | F 2.17 | L 2.97
C8: R 2.56 | L 1.97 | G 2.85 | M 3.22 | E 3.1 | Q 2.71 | T 3.03 | I 2.61 | V 3.15 | P 2.82 | W 1.97 | A 2.83 | D 2.4 | H 2.38 | Y 1.82 | K 2.46 | N 3 | F 2.05 | S 2.41
P2: I 2.43 | L 1.81 | F 2.44 | V 2.3 | E 2.59 | Y 1.89 | H 1.68 | K 2.17 | D 2.42 | S 2.53 | M 2.27 | T 2.57 | G 2.22 | C 2.13 | W 2.14 | Q 2.47 | N 2.31 | A 2.42 | R 2.06
H6: L 2.19 | F 2.44 | G 2.39 | Q 2.22 | D 2.95 | P 2.11 | A 2.02 | C 1.99 | M 2.24 | I 2.05 | Y 2.88 | S 1.71 | N 2.14 | R 2.32 | T 3.08 | V 2.12 | K 2.81 | W 2.05 | E 2.38
K3: N 2.83 | Y 2.05 | D 2.94 | T 2.17 | Q 2.52 | R 2.06 | H 2.82 | E 2.8 | P 2.62 | M 2.78 | I 2.78 | V 2.67 | F 2.83 | A 2.33 | G 2.65 | W 1.93 | S 2.56 | L 2.63 | C 2.32
Q1: G 2.33 | S 2.39 | Y 2.23 | P 2.43 | A 2.97 | R 2.47 | N 2.83 | D 3.09 | E 3.16 | F 2.21 | V 2.12 | T 2.5 | K 2.64 | W 2.26 | C 2.69 | M 2.6 | I 2.61 | H 2.69 | L 2.4
L7: D 2.1 | W 2.38 | K 2.88 | N 2.18 | C 2.3 | P 2.07 | T 2.74 | I 3.56 | Q 2.85 | R 2.72 | E 2.28 | G 2.08 | A 2.69 | S 2.1 | M 2.59 | Y 3.02 | H 2.46 | V 3.04 | F 2.78
